Source: patent US9181310B2 (priority 2003, dated 2015)

Key:
[1] = test system: X. oryzae and X. oryzicola; format: in vivo; conditions: transgenic rice, pIPG787
[2] = test system: R. solanacearum strain Rsp446; format: in vivo, Ralstonia solanacearum; conditions: seeded T1 tobacco, three experiments each, 60 days

B1: BombBC: Bacteriophage Outer Membrane Breaching protein of Xanthomonas phage P15 (Xp15) ORF BC, 17.9 kD, SEQ ID NO. 17 (protein, listed as Xanthomonas campestris)
chain: MSDQTDTTQTTPAEKAPPKEIIRGRMPIAVVALARFGSQSTTTTKAAADALGTTVGKIDDIRKNRNFAYVTADFKPTEAQKADGIEWLKRHPVGADALIEELQNLPVATAEESAAFEQVRASARGQNAKTAEGEVAQAGGGNRRKKKEKPAEAGEVQNPPAADGDSLLS
[1]
  resistance to Gram-negative bacterial pathogens: will be resistant
[2]
  resistance conferred to transgenic tobacco: strong resistance
